Source: US20100233189A1

Biological target: human TSHR with mutation K209E expressed in CHO cells (human) (UniProt P16473)
Experiment: cell-based or functional assay

Sequence of UniProt P16473 (P16473 22-764 K209E/E727D): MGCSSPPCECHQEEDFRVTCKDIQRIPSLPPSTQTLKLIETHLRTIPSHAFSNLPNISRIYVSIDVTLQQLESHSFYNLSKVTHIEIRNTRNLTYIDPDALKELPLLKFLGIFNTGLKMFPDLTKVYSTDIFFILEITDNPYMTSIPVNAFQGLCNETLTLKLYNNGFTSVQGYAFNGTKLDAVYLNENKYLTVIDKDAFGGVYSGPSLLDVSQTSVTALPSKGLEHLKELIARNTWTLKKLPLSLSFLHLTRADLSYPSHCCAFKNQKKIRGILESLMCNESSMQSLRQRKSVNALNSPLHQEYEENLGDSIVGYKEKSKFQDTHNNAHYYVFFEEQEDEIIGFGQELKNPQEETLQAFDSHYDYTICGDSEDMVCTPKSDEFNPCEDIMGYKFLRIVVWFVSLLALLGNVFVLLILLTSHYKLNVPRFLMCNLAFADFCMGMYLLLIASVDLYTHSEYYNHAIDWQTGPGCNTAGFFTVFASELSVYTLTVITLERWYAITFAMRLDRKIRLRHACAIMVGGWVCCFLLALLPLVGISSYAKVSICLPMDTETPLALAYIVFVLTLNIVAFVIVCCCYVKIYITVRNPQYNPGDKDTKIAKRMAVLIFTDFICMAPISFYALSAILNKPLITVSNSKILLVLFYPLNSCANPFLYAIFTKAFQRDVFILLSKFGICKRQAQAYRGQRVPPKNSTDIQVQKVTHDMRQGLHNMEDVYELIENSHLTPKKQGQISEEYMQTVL

B1: M22 Fab (Fab fragment of human monoclonal thyroid stimulating autoantibody hMAb TSHR1) (Fab, from another filing, V domains shown)
VH: QVQLVQSGAEVKKPGESLKISCRGSGYRFTSYWINWVRQLPGKGLEWMGRIDPTDSYTNYSPSFKGHVTVSADKSINTAYLQWSSLKASDTGMYYCARLEPGYSSTWSVNWGQGTLVTVSS
VL: LTVLTQPPSVSGAPRQRVTISCSGNSSNIGNNAVNWYQQLPGKAPKLLIYYDDQLPSGVSDRFSGSRSGTSASLAIRGLQSEDEADYYCTSWDDSLDSQLFGGGTRLTVLG
Binder B1 has an M22 stimulating activity (cyclic AMP production in TSHR expressing CHO cells) (% of activity with the wild type TSHR) of less than 20.
